B1: leaf-extracted RCA from Oryza sativa (partially purified, alpha and beta isoforms) (protein)
chain 1: KELDEGKQTDQDRWKGLAYDISDDQQDITRGKGFVDSLFQAPTGDGTHEAVLSSYEYLSQGLRTYDFDNTMGGFYIAPAFMDKLVVHISKNFMTLPNIKVPLILGIWGGKGQGKSFQCELVFAKMGINPIMMSAGELESGNAGEPAKLIRQRYREAADIIKKGKMCCLFINDLDAGAGRMGGTTQYTVNNQMVNATLMNIADNPTNVQLPGMYNKEDNPRVPIIVTGNDFSTLYAPLIRDGRMEKFYWAPTRDDRVGVCKGIFRTDNVPDEDIVKIVDSFPGQSIDFFGALRARVYDDEVRKWVSDTGVENIGKRLVNSREGPPEFEQPKMTIEKLMEYGYMLVKEQENVKRVQLAEQYLSEAALGDANSDAMKTGSFYGQGAQQAGNLPVPEGCTDPVAKNFDPTARSDDGSCLYTF
chain 2: KELDEGKQTDQDRWKGLAYDISDDQQDITRGKGFVDSLFQAPTGDGTHEAVLSSYEYLSQGLRTYDFDNTMGGFYIAPAFMDKLVVHISKNFMTLPNIKVPLILGIWGGKGQGKSFQCELVFAKMGINPIMMSAGELESGNAGEPAKLIRQRYREAADIIKKGKMCCLFINDLDAGAGRMGGTTQYTVNNQMVNATLMNIADNPTNVQLPGMYNKEDNPRVPIIVTGNDFSTLYAPLIRDGRMEKFYWAPTRDDRVGVCKGIFRTDNVPDEDIVKIVDSFPGQSIDFFGALRARVYDDEVRKWVSDTGVENIGKRLVNSREGPPEFEQPKMTIEKLMEYGYMLVKEQENVKRVQLAEQYLSEAALGDANSDAMKTGSFYGSAPSS
B2: recombinant Oryza sativa Rubisco activase (RCA), beta (short) isoform (protein)
chain: MAKELDEGKQTDQDRWKGLAYDISDDQQDITRGKGFVDSLFQAPTGDGTHEAVLSSYEYLSQGLRTYDFDNTMGGFYIAPAFMDKLVVHISKNFMTLPNIKVPLILGIWGGKGQGKSFQCELVFAKMGINPIMMSAGELESGNAGEPAKLIRQRYREAADIIKKGKMCCLFINDLDAGAGRMGGTTQYTVNNQMVNATLMNIADNPTNVQLPGMYNKEDNPRVPIIVTGNDFSTLYAPLIRDGRMEKFYWAPTRDDRVGVCKGIFRTDNVPDEDIVKIVDSFPGQSIDFFGALRARVYDDEVRKWVSDTGVENIGKRLVNSREGPPEFEQPKMTIEKLMEYGYMLVKEQENVKRVQLAEQYLSEAALGDANSDAMKTGSFYGSAPSS
B3: recombinant Oryza sativa Rubisco activase (RCA), alpha (long) isoform (protein)
chain: MAKELDEGKQTDQDRWKGLAYDISDDQQDITRGKGFVDSLFQAPTGDGTHEAVLSSYEYLSQGLRTYDFDNTMGGFYIAPAFMDKLVVHISKNFMTLPNIKVPLILGIWGGKGQGKSFQCELVFAKMGINPIMMSAGELESGNAGEPAKLIRQRYREAADIIKKGKMCCLFINDLDAGAGRMGGTTQYTVNNQMVNATLMNIADNPTNVQLPGMYNKEDNPRVPIIVTGNDFSTLYAPLIRDGRMEKFYWAPTRDDRVGVCKGIFRTDNVPDEDIVKIVDSFPGQSIDFFGALRARVYDDEVRKWVSDTGVENIGKRLVNSREGPPEFEQPKMTIEKLMEYGYMLVKEQENVKRVQLAEQYLSEAALGDANSDAMKTGSFYGQGAQQAGNLPVPEGCTDPVAKNFDPTARSDDGSCLYTF
B4: recombinant Oryza australiensis Rubisco activase (RCA), alpha (long) isoform (protein)
chain: MAKELDEDKQTDQDKWKGLAYDISDDQQDITRGKGLVDSLFQAPMGDGTHEAVLSSYEYLSQGLKMLDNTMGGFYIAPAFMDKLVVHISKNFMALPNIKVPLILGIWGGKGQGKSFQCELVFSKMGINPIMMSAGELESGNAGEPAKLIRQRYREAADIIKKGKMCCLFINDLDAGAGRMGGTTQYTVNNQMVNATLMNIADNPTNVQLPGMYNKEDNPRVPIIVTGNDFSTLYAPLIRDGRMEKFYWAPTRDDRVGVCKGIFRTDNVPDEDIVKIVDSFPGQSIDFFGALRARVYDDEVRKWVSDTGVENIGKKLVNSREGPPEFEQPKMTIDKLMEYGHMLVREQENVKRVQLADKYLSEAALGDANSDAMKTGSFYGQGAQQGGNLPVPEGCTDPVAKNFDPTARSDDGSCLYTF
B5: leaf-extracted RCA from Oryza australiensis (partially purified, alpha and beta isoforms) (protein)
chain 1: KELDEDKQTDQDKWKGLAYDISDDQQDITRGKGLVDSLFQAPMGDGTHEAVLSSYEYLSQGLKMLDNTMGGFYIAPAFMDKLVVHISKNFMALPNIKVPLILGIWGGKGQGKSFQCELVFSKMGINPIMMSAGELESGNAGEPAKLIRQRYREAADIIKKGKMCCLFINDLDAGAGRMGGTTQYTVNNQMVNATLMNIADNPTNVQLPGMYNKEDNPRVPIIVTGNDFSTLYAPLIRDGRMEKFYWAPTRDDRVGVCKGIFRTDNVPDEDIVKIVDSFPGQSIDFFGALRARVYDDEVRKWVSDTGVENIGKKLVNSREGPPEFEQPKMTIDKLMEYGHMLVREQENVKRVQLADKYLSEAALGDANSDAMKTGSFYGQGAQQGGNLPVPEGCTDPVAKNFDPTARSDDGSCLYTF
chain 2: KELDEDKQTDQDKWKGLAYDISDDQQDITRGKGLVDSLFQAPMGDGTHEAVLSSYEYLSQGLKMLDNTMGGFYIAPAFMDKLVVHISKNFMALPNIKVPLILGIWGGKGQGKSFQCELVFSKMGINPIMMSAGELESGNAGEPAKLIRQRYREAADIIKKGKMCCLFINDLDAGAGRMGGTTQYTVNNQMVNATLMNIADNPTNVQLPGMYNKEDNPRVPIIVTGNDFSTLYAPLIRDGRMEKFYWAPTRDDRVGVCKGIFRTDNVPDEDIVKIVDSFPGQSIDFFGALRARVYDDEVRKWVSDTGVENIGKKLVNSREGPPEFEQPKMTIDKLMEYGHMLVREQENVKRVQLADKYLSEAALGDANSDAMKTGSFYGAAPSS
B6: recombinant Oryza australiensis Rubisco activase (RCA), beta (short) isoform (protein)
chain: MAKELDEDKQTDQDKWKGLAYDISDDQQDITRGKGLVDSLFQAPMGDGTHEAVLSSYEYLSQGLKMLDNTMGGFYIAPAFMDKLVVHISKNFMALPNIKVPLILGIWGGKGQGKSFQCELVFSKMGINPIMMSAGELESGNAGEPAKLIRQRYREAADIIKKGKMCCLFINDLDAGAGRMGGTTQYTVNNQMVNATLMNIADNPTNVQLPGMYNKEDNPRVPIIVTGNDFSTLYAPLIRDGRMEKFYWAPTRDDRVGVCKGIFRTDNVPDEDIVKIVDSFPGQSIDFFGALRARVYDDEVRKWVSDTGVENIGKKLVNSREGPPEFEQPKMTIDKLMEYGHMLVREQENVKRVQLADKYLSEAALGDANSDAMKTGSFYGAAPSS

Columns and labels:
[1] = target: Rubisco from wheat (wheat) (UniProt P11383); experiment: cell-based or functional assay
[2] = target: Rubisco (Ribulose-1,5-bis-phosphate carboxylase/oxygenase) purified from Oryza sativa leaves (Oryza sativa) (UniProt P0C512); experiment: cell-based or functional assay
[3] = target: Rubisco (Ribulose-1,5-bis-phosphate carboxylase/oxygenase) purified from Oryza sativa leaves, P0C512

| Molecule | Rubisco activation activity of recombinant RCA at 30 and 36° C. [3] | concentration-dependent specific activity of ATP hydrolysis | temperature stability of ATP hydrolysis | other results |
| --- | --- | --- | --- | --- |
| beta isoform of RCA extracted from wheat leaves (0.2 M KCl anion-exchange fraction) (enzyme) | – | – | – | activation of wheat Rubisco by leaf-extracted beta isoform at less than 34° C., relative to the rice RCA isoforms [1]: > 2 fold |
| leaf-extracted RCA from Oryza sativa (partially purified, alpha and beta isoforms) (from UniProt P93431 49-466; P93431 49-428) (enzyme) | – | – | – | reduction in fraction of Rubisco activated at comparable temperatures [2]: 80% |
| B1 | – | – | – | peak in RCA activation performance (temperature of maximal Rubisco activation) [3]: 29.9±0.5 °C for O. sativa |
| B2 | the β isoform of RCAOs has higher activity than RCAOa | specific activity of ATP hydrolysis falls at low RCA concentrations | both being heat stable, not losing activity until 40 °C | – |
| B3 | there is little difference in activity of the α isoform between the species | specific activity of ATP hydrolysis falls at low RCA concentrations | both being heat stable, not losing activity until 40 °C | – |
| B4 | there is little difference in activity of the α isoform between the species | specific activity of ATP hydrolysis falls at low RCA concentrations | both being heat stable, not losing activity until 40 °C | – |
| B5 | – | – | – | absolute rate of Rubisco activation at 42° C. relative to Os RCA [3]: at 42 °C Oa had an absolute rate of activity four-times that of Os; drop in Rubisco activation activity at 42° C. relative to 30° C., RCA at 0.96 mg·mL^-1 [3]: close to a 50% drop in activity at 42 °C relative to 30 °C; fall in Rubisco activation activity at 42° C. relative to 30° C., RCA at 0.24 and 0.49 mg·mL^-1 [3]: less than a 20% fall at concentrations of 0.24 and 0.49 mg·mL^-1; peak in RCA activation performance (temperature of maximal Rubisco activation) [3]: 33.0±0.3 °C for O. australiensis |
| B6 | the β isoform of RCAOs has higher activity than RCAOa | specific activity of ATP hydrolysis falls at low RCA concentrations | both being heat stable, not losing activity until 40 °C | – |
